“And” between values parts separate entries of the source, which are not always exact repeats. Equal entries are not always repeated.

Kd data for two sequences are collected here from PMC12670994.

Data set [1] has as its target SARS-CoV-2 spike on Omicron pseudovirus (GFP-expressing) (SARS-CoV-2 Omicron) (UniProt P0DTC2). In words: flow cytometry, bead-bound aptamer. To be noted: 5' hexynyl-iSp18-iSp18-iSp18 (PEG spacer).
Data set [2] has the same target. Briefly: flow cytometry, bead-bound aptamer.

Consider “ATCCAGAGTGACGCAGCACCGACCTTGTGCTTTGGGAGTGCTGGTCCAAGGGCGTTAATGGACACGGTGGCTTAGT [Omicron PEG36 Particle Aptamer]”, for which the equilibrium dissociation constant (Kd) in data set [1] is 0.011 pM and 0.017 pM and 0.073 pM; in data set [2] (5' hexynyl-iSp18-iSp18-iSp18 (PEG spacer)), 0.007 pM. As to “TTTTTATCCAGAGTGACGCAGCACCGACCTTGTGCTTTGGGAGTGCTGGTCCAAGGGCGTTAATGGACACGGTGGCTTAGT [Omicron Particle Aptamer]”, in data set [2] (5' hexynyl), the Kd amounted to 0.01 pM.
